How the values were obtained:
[1] = molecular target: T1, PD-1.his (Homo sapiens (Human), UniProt Q15116 25-170); assay: ELISA, protein coated at 1 µg/mL
[2] = molecular target: T2, HER3.his (Homo sapiens (Human), UniProt P21860 20-643); assay: ELISA, protein coated at 1 µg/mL
[3] = molecular target: T3, HSA. (UniProt P02768 25-609); assay: ELISA, protein coated at 1 µg/mL
[4] = molecular target: T4, CD47 on human red blood cells (human, UniProt Q08722 19-323); assay: FACS on human red blood cells, goat anti-human IgG-Fc PE
T4 construct: whole, on cells; also called human RBCs; hRBC
Procedure: (§1) The cells were washed twice with 180 μL 1% BSA-PBS. The secondary antibody, Goat Anti-human IgG-Fc PE was added to re-suspend cells and incubated at 4° C. in the dark for 30 min followed by washing with 180 μL 1% BSA-PBS. At the end, the cells were re-suspended in 100 μL 1% BSA-PBS, and the fluorescence intensity was measured by FACS (BD Canto II) and analyzed by FlowJo Version software. The binding EC50s were calculated by using GraphPad Prism software equation: Nonlinear regression (curve fit)—log (agonist) vs. response—Variable slope.

[5] = molecular target: Factor Eight; assay: non-specific binding ELISA, protein coated 1 µg/mL, lead antibody at 10 ug/ml
Procedure: (§2) The 96-well high binding plates were coated with 14 different proteins at 1 μg/mL at 4° C. overnight and blocked with 2% BSA-PBS for 1 hr. […] Then the Goat anti-human IgG-Fc-HRP secondary antibody was added and incubated for 1 hr. The TMB peroxidase substrate solution was added and then reaction was stopped after 12 minutes using 2M HCl. All incubation steps were performed at room temperature, and the plates were washed 5 times with PBST at pH 7.4 between steps. The absorbance of testing samples was measured at 450 nm with a multiwall plate reader (SpectraMax® M5e).

[6] = molecular target: FGFR.his; assay: as above
Procedure: as §2

[7] = molecular target: CD147.his; assay: as above
Procedure: as §2

[8] = molecular target: T1, PD-1.his; assay: as above
Procedure: as §2

[9] = molecular target: CTLA4.his; assay: as above
Procedure: as §2

[10] = molecular target: VEGFR2.his; assay: as above
Procedure: as §2

[11] = molecular target: CD22.his; assay: as above
Procedure: as §2

[12] = molecular target: VEGF.his; assay: as above
Procedure: as §2

[13] = molecular target: CD3.his; assay: as above
Procedure: as §2

[14] = molecular target: T2, HER3.his; assay: as above
Procedure: as §2

[15] = molecular target: OX40.his; assay: as above
Procedure: as §2

[16] = molecular target: 4-1B8.his; assay: as above
Procedure: as §2

[17] = molecular target: CD40.his; assay: as above
Procedure: as §2

[18] = molecular target: T3, HSA.; assay: as above
Procedure: as §2

[19] = molecular target: T5, human CD47 ECD protein (human, UniProt Q08722 19-139, limits assumed); assay: ELISA on plate-coated human CD47 ECD (1 µg/mL), goat anti-human IgG-Fc-HRP, OD450
T5 construct: extracellular domain; The assays say only 'human CD47 ECD protein' / 'Human CD47 protein'; 55 kDa was used as molecular weight in SPR; also called human CD47 protein; W345-hPro1.ECD (sino)
Procedure: Then the Goat anti-human IgG-Fc-HRP secondary antibody was added and incubated for 1 hr. […] All incubation steps were performed at room temperature, and the plates were washed 5 times with PBST at pH 7.4 between steps.

[20] = molecular target: T6, human CD47 on engineered CHO-K1 cells (human, UniProt Q08722 19-323); assay: FACS on CHO-K1 cells expressing human CD47 (CHOK1-huCD47), goat anti-human IgG-Fc PE
T6 construct: whole, on cells; also called human CD47-expressing cells
Procedure: as §1, with “Briefly, the engineered CD47-expressing cells were coated into 96-well U-bottom plates at a density of 1×10⁵ cells/well and centrifuged at 1500 rpm at 4° C. for 4 min before removing the supernatant. […] The cells” for “The cells”

[21] = molecular target: T5, human CD47 ECD protein; assay: SPR Biacore T200, antibody captured on anti-human IgG Fc chip, human CD47 as analyte, 1:1 model
Procedure: Each antibody was captured on an anti-human IgG Fc antibody immobilized CMS sensor chip (GE). Human CD47 protein at different concentrations were injected over the sensor chip at a flow rate of 30 uL/min for an association phase of 180 s, followed by 3600 s dissociation. The chip was regenerated by 10 mM glycine (pH 1.5) after each binding cycle. The sensorgrams of blank surface and buffer channel were subtracted from the test sensorgrams. The experimental data was fitted by 1:1 model using Langmiur analysis. Molecular weight of 55 kDa was used to calculate the molar concentration of analyte antigen.

[22] = molecular target: T7, cynomolgus monkey CD47 on engineered CHO-K1 cells (cynomolgus monkey, UniProt A0A5F8AK49 19-323 (rhesus entry)); assay: FACS on CHO-K1 cells expressing cynomolgus CD47 (CHOK1-cynoCD47), goat anti-human IgG-Fc PE
T7 construct: whole, on cells; also called cyno CD47 expressing cells; cynomolgus monkey CD47-expressing cells
Procedure: as §1, with “Briefly, the engineered CD47-expressing cells were coated into 96-well U-bottom plates at a density of 1×10⁵ cells/well and centrifuged at 1500 rpm at 4° C. for 4 min before removing the supernatant. […] The cells” for “The cells”

[23] = molecular target: T5, human CD47 ECD protein; assay: competition ELISA: plate-coated human CD47 ECD (1 µg/mL), antibody titrated together with human SIRPα-His (1 µg/mL), bound SIRPα detected with anti-His-HRP
Procedure: 96-well plates were coated with human CD47 ECD at 1 μg/mL at 4° C. overnight and blocked with 2% BSA-PBS for 1 hr. […] The TMB peroxidase substrate solution was added and then reaction was stopped after 12 minutes using 2M HCl. All incubation steps were performed at room temperature, and the plates were washed with PBST between steps. The absorbance of the testing samples was measured at 450 nm with a multiwall plate reader. The competitive binding IC50s were calculated by using GraphPad Prism software equation: Nonlinear regression (curve fit)—log (antagonist) vs. response—Variable slope.

[24] = molecular target: T6, human CD47 on engineered CHO-K1 cells; assay: competition FACS: CHO-K1 cells expressing human CD47, antibody titrated together with human SIRPα-His (1 µg/mL), bound SIRPα detected with anti-His-biotin and streptavidin-PE
Procedure: At the end, the cells were re-suspended in 100 μL 1% BSA-PBS, and the fluorescence intensity was measured by FACS (BD Canto II) and analyzed by FlowJo Version software. The competitive binding IC50s were calculated by using GraphPad Prism software equation: Nonlinear regression (curve fit)—log (antagonist) vs. response—Variable slope.

T1 sequence (Q15116 25-170 limits assumed): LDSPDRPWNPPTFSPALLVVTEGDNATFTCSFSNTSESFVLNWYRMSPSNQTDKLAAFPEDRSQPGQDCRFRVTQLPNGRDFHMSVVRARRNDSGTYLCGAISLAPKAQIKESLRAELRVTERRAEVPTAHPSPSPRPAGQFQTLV
Sequence of CD40.his (P25942 21-193): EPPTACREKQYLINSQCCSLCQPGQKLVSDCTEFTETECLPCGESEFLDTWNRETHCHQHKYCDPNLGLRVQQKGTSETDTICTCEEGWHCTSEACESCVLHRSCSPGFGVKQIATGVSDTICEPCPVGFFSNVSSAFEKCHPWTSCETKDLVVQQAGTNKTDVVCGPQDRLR
Sequence of CTLA4.his (P16410 36-161): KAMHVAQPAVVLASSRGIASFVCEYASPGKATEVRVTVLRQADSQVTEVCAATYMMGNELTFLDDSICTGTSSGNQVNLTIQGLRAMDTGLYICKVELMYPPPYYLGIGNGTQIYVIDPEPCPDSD
Sequence of OX40.his (P43489 29-214): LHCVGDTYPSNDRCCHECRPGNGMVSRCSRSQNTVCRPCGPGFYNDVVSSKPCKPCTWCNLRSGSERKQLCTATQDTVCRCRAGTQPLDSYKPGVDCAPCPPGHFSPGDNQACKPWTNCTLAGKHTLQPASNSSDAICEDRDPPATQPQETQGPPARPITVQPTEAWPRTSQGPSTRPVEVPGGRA
Sequence of 4-1B8.his (Q07011 24-186): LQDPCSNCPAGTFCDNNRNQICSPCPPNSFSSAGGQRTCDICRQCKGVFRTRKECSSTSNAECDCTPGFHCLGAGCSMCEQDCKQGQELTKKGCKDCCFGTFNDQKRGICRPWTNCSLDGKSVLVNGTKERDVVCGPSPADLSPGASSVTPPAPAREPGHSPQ
Sequence of VEGF.his (P15692 whole entry): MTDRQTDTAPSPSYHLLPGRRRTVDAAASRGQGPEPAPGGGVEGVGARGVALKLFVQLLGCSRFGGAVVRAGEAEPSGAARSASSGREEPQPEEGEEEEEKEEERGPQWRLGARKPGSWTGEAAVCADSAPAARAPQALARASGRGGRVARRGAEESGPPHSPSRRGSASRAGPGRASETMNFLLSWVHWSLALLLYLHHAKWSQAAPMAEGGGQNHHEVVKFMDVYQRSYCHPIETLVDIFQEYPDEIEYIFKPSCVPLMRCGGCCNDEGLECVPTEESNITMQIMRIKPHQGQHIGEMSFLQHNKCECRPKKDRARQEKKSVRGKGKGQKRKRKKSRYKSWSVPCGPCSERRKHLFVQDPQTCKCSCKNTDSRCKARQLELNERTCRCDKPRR
Sequence of VEGFR2.his (P35968 20-764): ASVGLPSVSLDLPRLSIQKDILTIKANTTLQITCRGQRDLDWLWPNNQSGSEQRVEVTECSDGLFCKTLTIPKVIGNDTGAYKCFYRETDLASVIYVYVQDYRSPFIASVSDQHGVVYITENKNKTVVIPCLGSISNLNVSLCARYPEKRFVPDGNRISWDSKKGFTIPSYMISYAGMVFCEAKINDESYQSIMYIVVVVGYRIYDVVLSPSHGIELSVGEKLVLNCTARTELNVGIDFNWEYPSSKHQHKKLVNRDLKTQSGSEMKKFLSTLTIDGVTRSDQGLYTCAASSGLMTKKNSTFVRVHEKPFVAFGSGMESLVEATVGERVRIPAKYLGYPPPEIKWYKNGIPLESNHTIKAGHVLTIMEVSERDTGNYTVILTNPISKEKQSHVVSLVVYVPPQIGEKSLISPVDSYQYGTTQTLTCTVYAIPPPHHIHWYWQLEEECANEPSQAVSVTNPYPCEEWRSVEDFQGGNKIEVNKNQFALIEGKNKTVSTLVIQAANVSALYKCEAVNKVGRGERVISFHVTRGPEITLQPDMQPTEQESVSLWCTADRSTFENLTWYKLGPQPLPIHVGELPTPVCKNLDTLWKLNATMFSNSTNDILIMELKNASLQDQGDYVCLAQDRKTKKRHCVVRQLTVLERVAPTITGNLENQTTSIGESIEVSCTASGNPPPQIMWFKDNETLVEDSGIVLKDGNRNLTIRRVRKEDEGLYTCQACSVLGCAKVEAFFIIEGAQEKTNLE

B1: W3455-4.9.9-uIgG4.SPL (antibody, V domains shown)
VH: EVQLLESGGGLVQPGGSLRLSCAASGFTFSNFAMSWVRQAPGKGLEWVSTISASGGRTFYADSVKGRITISRDNSKNTLFLQMNGLRAEDTAVYYCAKEGSFGEGVDPWGQGTLVTVSS
VL: SYEMTQPPSVSVSPGQTARITCSGDALPKKYAYWYQQKSGQAPVLVIYEDNKRPSGIPERFSGSSSGTMATLTISGAQVEDEADYYCYSTDISGNHWVFGGGTELTVLG
notes: Fully human anti-CD47 antibody; also called W3455 antibody; WBP3455-4.9.9-uIgG4.SPL
[1]
  binding result: no binding (tested: 10 ug/ml)
[2]
  binding result: no binding (tested: 10 ug/ml)
[3]
  binding result: no binding (tested: 10 ug/ml)
[4]
  EC50: 76.7 nM
[5]
  ELISA-OD450: 0.0498
[6]
  ELISA-OD450: 0.138
[7]
  ELISA-OD450: 0.0463
[8]
  ELISA-OD450: 0.227
[9]
  ELISA-OD450: 0.0573
[10]
  ELISA-OD450: 0.0452
[11]
  ELISA-OD450: 0.0478
[12]
  ELISA-OD450: 0.0475
[13]
  ELISA-OD450: 0.0527
[14]
  ELISA-OD450: 0.0462
[15]
  ELISA-OD450: 0.0487
[16]
  ELISA-OD450: 0.0551
[17]
  ELISA-OD450: 0.209
[18]
  ELISA-OD450: 0.324
[19]
  EC50: 0.038 nM
[20]
  EC50: 2.99 nM
[21]
  Kd: 0.0223 nM
  koff: 2.34e-05 s⁻¹
  kon: 1.05e+06 M⁻¹ s⁻¹
[22]
  EC50: 2.71 nM
[23]
  IC50: 3.21 nM
[24]
  IC50: 20.1 nM

Reference: patent publication US20220403023A1 (WUXI BIOLOGICS IRELAND, published 2022)
